In assay [1] the target is T1, BMH1 (native, from EBY100 lysate) (Saccharomyces cerevisiae, UniProt P29311 2-267).
T1 construct: mature; Endogenous untagged protein; also called YER177W
T1 sequence (looked up): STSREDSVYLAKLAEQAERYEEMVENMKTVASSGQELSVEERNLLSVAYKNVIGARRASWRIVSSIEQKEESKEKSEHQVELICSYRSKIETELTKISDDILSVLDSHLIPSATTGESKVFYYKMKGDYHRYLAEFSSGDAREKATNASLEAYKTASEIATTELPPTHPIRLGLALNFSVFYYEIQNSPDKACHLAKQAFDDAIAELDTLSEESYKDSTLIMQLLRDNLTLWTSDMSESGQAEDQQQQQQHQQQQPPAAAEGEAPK
In words: co-IP, Nb on NHS-agarose beads, EBY100 yeast lysate, SDS-PAGE.

In another assay the target is T2, GFP-tagged BMH1 (Saccharomyces cerevisiae, UniProt P29311 2-267).
T2 construct: Yeast GFP Fusion Collection strain; also called Yeast GFP fusion collection GFP(+)27, D5; not shown: GFP tag
T2 sequence (looked up): T1 sequence (looked up)
In words: co-immunoprecipitation, Nb coupled to NHS-agarose beads, lysate of the yeast strain expressing the GFP-tagged target, Western blot anti-GFP. As to the method:
One SIS1-specific Nanobody (44=Nb clone CA17444 corresponding to SEQ ID NO: 9), three ALD6-specific Nanobodies (53=CA17453-SEQ ID NO: 10, 54=CA17454-SEQ ID NO: 11, 60=CA17460-SEQ ID NO: 12), two BMH1-specific Nanobodies (58=CA17458-SEQ ID NO: 13, 59=CA17459-SEQ ID NO: 14) were characterized by co-immunoprecipitation assays. Each target-specific Nanobodies was covalently linked to NHS-agarose beads. The beads that were functionalized with these target-specific Nanobodies were incubated for an hour at 4° C. on a rotating device with either an EBY100 lysate or the lysate of the engineered Yeast strain expressing the target (Yeast GFP fusion collection reference for SIS1: GFP(+)22, E5, for ALD6: GFP(+)15, F1, for BMH1: GFP(+)27, D5) as a GFP-tagged protein. After washing, these beads were resuspended in SDS-PAGE loading dye and analyzed on SDS-PAGE (FIG. 8A). Separated proteins were transferred to a PVDF membrane and the Western blot (FIG. 8B) was developed with GFP-specific antibody to confirm the presence of GFP-tagged targets.
On the technique in general: Immunoblotting shows a protein as a band on a membrane.

Another assay deals with T3, GFP-tagged HSP104 (Saccharomyces cerevisiae, UniProt P31539 1-908).
T3 construct: Yeast GFP Fusion Collection strain; also called Yeast GFP fusion collection GFP(+)05, A2; YLL026W; not shown: GFP tag
T3 sequence (P31539 whole entry, the tested form may be a part): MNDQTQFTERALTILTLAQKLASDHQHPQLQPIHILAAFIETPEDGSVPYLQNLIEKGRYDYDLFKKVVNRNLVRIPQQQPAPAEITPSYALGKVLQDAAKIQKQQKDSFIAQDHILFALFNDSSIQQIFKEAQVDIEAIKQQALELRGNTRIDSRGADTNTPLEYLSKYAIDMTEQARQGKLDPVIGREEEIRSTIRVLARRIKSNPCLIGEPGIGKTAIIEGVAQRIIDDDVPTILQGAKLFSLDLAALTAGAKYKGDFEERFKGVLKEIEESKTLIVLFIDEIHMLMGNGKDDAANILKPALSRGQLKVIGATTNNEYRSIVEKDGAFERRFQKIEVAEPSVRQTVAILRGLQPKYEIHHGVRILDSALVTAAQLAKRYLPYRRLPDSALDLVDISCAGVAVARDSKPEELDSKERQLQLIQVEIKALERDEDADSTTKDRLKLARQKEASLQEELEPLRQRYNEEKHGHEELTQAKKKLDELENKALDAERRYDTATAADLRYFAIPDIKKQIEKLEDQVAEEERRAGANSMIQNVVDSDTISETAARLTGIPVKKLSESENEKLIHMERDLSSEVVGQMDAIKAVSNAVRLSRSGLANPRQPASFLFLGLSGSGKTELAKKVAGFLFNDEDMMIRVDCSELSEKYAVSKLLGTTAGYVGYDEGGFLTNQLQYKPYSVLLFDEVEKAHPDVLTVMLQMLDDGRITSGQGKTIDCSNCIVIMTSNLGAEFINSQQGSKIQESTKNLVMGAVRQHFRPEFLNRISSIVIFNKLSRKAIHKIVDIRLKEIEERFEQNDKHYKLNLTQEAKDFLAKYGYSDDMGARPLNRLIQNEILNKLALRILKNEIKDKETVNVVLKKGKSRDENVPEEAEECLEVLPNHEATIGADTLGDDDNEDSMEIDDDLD
The description is as above. The text has this: (§1) One HSP104-specific Nanobody (04=CA18504 SEQ ID NO:40), one MET6-specific Nanobody (05=CA18505 SEQ ID NO:41), two SBA1-specific Nanobodies (08=Nb clone CA18508 corresponding to SEQ ID NO:42, 09=CA18509-SEQ ID NO:43), one SOD1-specific Nanobody (10=CA18510-SEQ ID NO:44), and a ENO1-specific Nanobody (38=CA17938-SEQ ID NO:45), were characterized by co-immunoprecipitation assays. Each POI-specific Nanobodies was covalently linked to NHS-agarose beads. The beads that were functionalized with these POI-specific Nanobodies were incubated for an hour at 4° C. on a rotating device with the lysate of the engineered Yeast strain expressing the POIs (Yeast GFP fusion collection reference: GFP(+)05, A2 (HSP104); GFP(+)07, D4 (MET6); GFP(+)30, A6 (SBA1); GFP(+)33, F8 (SOD1) and GFP(+)17, D12 (ENO1) as a GFP-tagged protein. After washing, these beads were analyzed on SDS-PAGE (not shown) and Western blot was developed with GFP-specific antibody to confirm the presence of GFP-tagged POIs.

The next assay addresses T4, GFP-tagged SBA1 (Saccharomyces cerevisiae, UniProt P28707 2-216).
T4 construct: Yeast GFP Fusion Collection strain; also called Yeast GFP fusion collection GFP(+)30, A6; YKL117W; not shown: GFP tag
T4 sequence (looked up): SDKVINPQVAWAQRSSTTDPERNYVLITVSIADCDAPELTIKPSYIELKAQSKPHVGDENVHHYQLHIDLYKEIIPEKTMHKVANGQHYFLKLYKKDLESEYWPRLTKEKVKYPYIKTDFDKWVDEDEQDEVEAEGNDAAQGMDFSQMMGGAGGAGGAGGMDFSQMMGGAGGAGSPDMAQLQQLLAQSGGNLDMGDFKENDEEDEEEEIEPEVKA
The description is as above.
From the text: as §1

The next assay deals with T5, GFP-tagged SOD1 (Saccharomyces cerevisiae, UniProt P00445 2-154).
T5 construct: Yeast GFP Fusion Collection strain; also called Yeast GFP fusion collection GFP(+)33, F8; YJR104C; not shown: GFP tag
T5 sequence (looked up): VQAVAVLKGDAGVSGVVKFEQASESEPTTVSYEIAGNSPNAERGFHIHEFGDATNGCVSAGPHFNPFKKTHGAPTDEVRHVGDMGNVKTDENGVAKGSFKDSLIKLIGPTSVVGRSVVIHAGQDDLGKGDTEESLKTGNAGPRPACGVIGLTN
Described as above.
From the text: as §1

Assay [2] deals with T6, SSA1 (native, from EBY100 lysate) (Saccharomyces cerevisiae, UniProt P10591 2-642).
T6 construct: mature; Endogenous untagged protein; also called YAL005C
T6 sequence (P10591 2-642): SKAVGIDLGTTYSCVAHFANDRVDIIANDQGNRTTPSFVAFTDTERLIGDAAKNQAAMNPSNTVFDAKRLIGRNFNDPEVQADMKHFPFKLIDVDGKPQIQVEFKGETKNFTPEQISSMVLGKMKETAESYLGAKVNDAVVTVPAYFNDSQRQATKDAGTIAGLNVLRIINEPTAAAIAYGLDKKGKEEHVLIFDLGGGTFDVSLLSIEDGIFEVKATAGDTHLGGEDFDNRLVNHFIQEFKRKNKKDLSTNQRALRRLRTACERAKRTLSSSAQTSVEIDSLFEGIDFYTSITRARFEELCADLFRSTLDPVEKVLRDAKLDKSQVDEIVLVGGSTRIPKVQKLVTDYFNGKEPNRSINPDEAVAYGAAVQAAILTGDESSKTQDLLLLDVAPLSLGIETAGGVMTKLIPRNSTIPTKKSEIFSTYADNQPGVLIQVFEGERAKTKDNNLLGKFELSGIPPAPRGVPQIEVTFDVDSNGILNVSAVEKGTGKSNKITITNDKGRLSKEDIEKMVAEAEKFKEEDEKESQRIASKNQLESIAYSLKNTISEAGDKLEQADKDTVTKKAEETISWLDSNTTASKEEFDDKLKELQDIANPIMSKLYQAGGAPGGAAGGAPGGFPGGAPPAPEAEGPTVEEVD
In words: co-immunoprecipitation, Nb coupled to NHS-agarose beads, EBY100 yeast lysate (native target), SDS-PAGE. As for the experimental part: (§2) Six SSA1-specific Nanobodies (60=Nb clone CA17560 corresponding to SEQ ID NO: 19, 61=CA17561-SEQ ID NO: 20, 62=CA17562-SEQ ID NO: 21, 63=CA17563-SEQ ID NO: 22, 64=CA17564-SEQ ID NO: 23, 65=CA17565-SEQ ID NO: 24) were characterized by co-immunoprecipitation assays. Each SSA1-specific Nanobodies was covalently linked to NHS-agarose beads. The beads that were functionalized with these SSA1-specific Nanobodies were incubated for an hour at 4° C. on a rotating device with either an EBY100 lysate or the lysate of the engineered Yeast strain expressing SSA1 (Yeast GFP fusion collection reference: GFP(+)10, E4) as a GFP-tagged protein. After washing, these beads were resuspended in SDS-PAGE loading dye and analyzed on SDS-PAGE (FIG. 6A). Separated proteins were transferred to a PVDF membrane and the Western blot (FIG. 6B) was developed with GFP-specific antibody to confirm the presence of GFP-tagged SSA1.

For a further assay, the target named is T7, GFP-tagged SSA1 (Saccharomyces cerevisiae, UniProt P10591 2-642).
T7 construct: Yeast GFP Fusion Collection strain; also called Yeast GFP fusion collection GFP(+)10, E4; not shown: GFP tag
T7 sequence (P10591 2-642): as above
In words: co-immunoprecipitation, Nb coupled to NHS-agarose beads, lysate of the yeast strain expressing the GFP-tagged target, SDS-PAGE. As to the method: as §2

The target of assay [3] is T6, SSA1 (native, from EBY100 lysate). In words: co-IP, Nb on NHS-agarose beads, EBY100 yeast lysate, SDS-PAGE.
A further assay deals with T8, GFP-tagged MET6 (Saccharomyces cerevisiae, UniProt P05694 2-767).
T8 construct: Yeast GFP Fusion Collection strain; also called Yeast GFP fusion collection GFP(+)07, D4; YER091C; not shown: GFP tag
T8 sequence (looked up): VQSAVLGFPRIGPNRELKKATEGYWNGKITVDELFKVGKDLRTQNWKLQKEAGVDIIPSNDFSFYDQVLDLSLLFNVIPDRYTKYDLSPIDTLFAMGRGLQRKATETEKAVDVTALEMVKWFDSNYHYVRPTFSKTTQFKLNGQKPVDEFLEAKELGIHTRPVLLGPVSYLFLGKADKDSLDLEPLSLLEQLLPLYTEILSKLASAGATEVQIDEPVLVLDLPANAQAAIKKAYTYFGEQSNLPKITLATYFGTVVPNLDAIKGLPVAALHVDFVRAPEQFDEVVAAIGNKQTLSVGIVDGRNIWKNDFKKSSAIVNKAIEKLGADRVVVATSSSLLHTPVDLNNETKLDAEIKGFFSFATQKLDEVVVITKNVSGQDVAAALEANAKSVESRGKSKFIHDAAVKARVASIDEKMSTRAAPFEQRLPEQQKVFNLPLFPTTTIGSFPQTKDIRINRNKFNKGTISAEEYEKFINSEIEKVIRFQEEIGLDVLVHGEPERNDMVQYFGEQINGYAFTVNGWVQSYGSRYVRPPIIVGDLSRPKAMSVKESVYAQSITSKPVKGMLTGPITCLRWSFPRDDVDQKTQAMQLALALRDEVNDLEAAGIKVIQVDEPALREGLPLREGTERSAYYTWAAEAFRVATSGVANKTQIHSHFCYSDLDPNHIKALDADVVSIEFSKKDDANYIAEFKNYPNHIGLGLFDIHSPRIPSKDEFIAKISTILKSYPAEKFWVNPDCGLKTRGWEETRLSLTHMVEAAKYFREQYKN
In words: co-immunoprecipitation, Nb coupled to NHS-agarose beads, lysate of the yeast strain expressing the GFP-tagged target, Western blot anti-GFP.
From the text: as §1

In the next assay the target is T9, GFP-tagged ENO1 (Saccharomyces cerevisiae, UniProt P00924 2-437).
T9 construct: Yeast GFP Fusion Collection strain; also called Yeast GFP fusion collection GFP(+)17, D12; YGR254W; not shown: GFP tag
T9 sequence (P00924 2-437): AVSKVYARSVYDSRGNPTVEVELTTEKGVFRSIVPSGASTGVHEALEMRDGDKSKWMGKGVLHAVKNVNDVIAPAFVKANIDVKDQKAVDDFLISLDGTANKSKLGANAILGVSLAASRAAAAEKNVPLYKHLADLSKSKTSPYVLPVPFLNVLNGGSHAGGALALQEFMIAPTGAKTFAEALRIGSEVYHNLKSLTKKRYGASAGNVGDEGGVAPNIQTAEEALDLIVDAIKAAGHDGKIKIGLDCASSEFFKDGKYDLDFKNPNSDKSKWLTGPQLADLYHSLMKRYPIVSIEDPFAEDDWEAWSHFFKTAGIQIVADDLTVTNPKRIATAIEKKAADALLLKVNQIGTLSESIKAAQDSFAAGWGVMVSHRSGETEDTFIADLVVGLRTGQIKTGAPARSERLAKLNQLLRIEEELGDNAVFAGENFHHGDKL
The assay is described as above.
From the text: as §1

B1: CA17458 (VHH)
VHH: QVQLVESGGGLVQPGGSLRLSCAASGTTLSLRRVGWYRQAPGKQRDLVATLTSGGETSYADSVKGRFTISRDNAKNTVYLQMNSLKLEDTAVYYCNAINWPMDYWGQGTQVTVSS
notes: C-terminal 6xHis-EPEA tag is part of the entry
Turning to B1, the binding result (in [1]; with GFP-tagged BMH1) was “binds” throughout.

B2: CA18504 (VHH)
VHH: QVQLVESGGGLVQPGGSLTLSCAGSGRAFDSIAMGWFRQAPGKEREFVAAISWNGVSAYYADSVKGRFTISRDNAKNTVHLQMNSLQSDDTAVYYCHADNSWGQGTQVTVSS
notes: as for B1
Consider B2, for which the binding result in the assay with GFP-tagged HSP104 is recorded as “binds”.

B3: CA18509 (VHH)
VHH: QVQLVESGGGLVQPGGSLRLSCAAAGFTFRMLDMSWYRQAPGKERELVATITSVSGTTNYADSVKGRVTISRDNAKNTVYLQMNSLKPEDTAVYYCNARMAAWGLDYWGQGTQVTVSS
notes: as for B1
In the case of B3, the binding result with GFP-tagged SBA1 is on record as “binds”.

B4: CA18510 (VHH)
VHH: QVQLVESGGGLVEAGGSLRLSCAASGRTFSSYAMGWFRQAPGKEREFVAAISWSGGSTYYADSVKGRFTISRDNAKNTVYLQMNSLKPEDTAVYYCAAPTAYHYSTTRDEYDSWGQGTQVTVSS
notes: as for B1
Take B4: the binding result in the assay with GFP-tagged SOD1 is “binds”.

B5: CA17560 (VHH)
VHH: QVQLVESGGGLVHSGGSLRLSCVASGGAFNDYTMGWFRQAPGKERQFVAAITWSSGVTSYSDSVRGRFVISRDIAKNTVYLQMNSLNPEETAVYVCAARLGVSSSPNSQISHRYDYWGQGTQVTVSS
notes: as for B1
Consider B5, for which the binding result (in [2]; in the assay with GFP-tagged SSA1) was “binds” in each case.

B6: CA17561 (VHH)
VHH: QVQLVESGGGLVQAGGSLRLSCAASTRTFSNYVMAWFRQAPGKEREFVGAINWSGGTEYYADSVKGRFTISRDNAKNTVYLQMNDLNPEDTANYYCAARRGTIARTALVKYLEYDYWGQGTQVTVSS
notes: as for B1
On to B6, for which the binding result (in assay [3]; with GFP-tagged SSA1) was “binds” each time.

B7: CA18508 (VHH)
VHH: QVQLVESGGGLVQPGGSLRLSCAASGFTFSNTAMSWYRQAPGKERELVAVSTSAGGGTDYADSVQGRFTISRDNAKNTVYLQMNDLKPEDTAVYYCYAVGRYRSSWRLLPFGSWGQGTQVTVSS
notes: as for B1
On to B7, for which, in the assay with GFP-tagged SBA1, the binding result was “binds”.

B8: CA18505 (VHH)
VHH: QVQLVESGGGLVQPGGSLRLSCAASGSIFSINAWGWYRQAPGKERELVAVITSVGGRTNYADSVKGRFTISRDNAKDMVYLQMNSLKPEDTAVYYCNSRGSSWYFGTPQDYWGQGTQVTVSS
notes: as for B1
In the case of B8, the binding result with GFP-tagged MET6 is recorded as “binds”.

B9: CA17938 (VHH)
VHH: QVQLVESGGGLVQPGGSLRLSCAASGFTLDTWAIGWFRQVPGKDREGAACISSEPSSTYYGEFVNGRFTISRDSAKSTVYLQMNDLKPEDTAVYYCSADRLSAYCSGSGGWGQGTQVTVSS
notes: as for B1
Turning to B9, the binding result with GFP-tagged ENO1 is on record as “binds”.

For the origin of these results see patent US20240287501A1 (VIB VZW, published 2024).
